Here are results for one molecule from PMC2199741.

For this test, the target named is biotinylated peptide comprising the NH2-terminal 73 amino acids of GM130 (N73pep) (UniProt Q62839). Description: pull-down.

B1: p115, vesicle tethering protein (natural protein)
chain: MNFLRGVMGGQSAGPQHTEAETIQKLCDRVASSTLLDDRRNAVRALKSLSKKYRLEVGIQAMEHLIHVLQTDRSDSEIIAYALDTLYNIISNDEEEEVEENSTRQSEDLGSQFTEIFIKQPENVTLLLSLLEEFDFHVRWPGVRLLTSLLKQLGPPVQQIILVSPMGVSKLMDLLADSREIIRNDGVLLLQALTRSNGAIQKIVAFENAFERLLDIITEEGNSDGGIVVEDCLILLQNLLKNNNSNQNFFKEGSYIQRMKAWFEVGDENPGWSAQKVTNLHLMLQLVRVLVSPTNPPGATSSCQKAMFQCGLLQQLCTILMATGIPADILTETINTVSEVIRGCQVNQDYFASVNAPSNPPRPAIVVLLMSMVNERQPFVLRCAVLYCFQCFLYKNEKGQGEIVATLLPSTIDATGNSVSAGQLLCGGLFSTDSLSNWCAAVALAHALQGNATQKEQLLRVQLATSIGNPPVSLLQQCTNILSQGSKIQTRVGLLMLLCTWLSNCPIAVTHFLHNSANVPFLTGQIAENLGEEEQLVQGLCALLLGISIYFNDNSLENYTKEKLKQLIEKRIGKENYIEKLGFISKHELYSRASQKPQPNFPSPEYMIFDHEFTKLVKELEGVITKAIYKSSEEDKKEEEVKKTLEQHDNIVTHYKNMIREQDLQLEELKQQVSTLKCQNEQLQTAVTQQASQIQQHKDQYNLLKVQLGKDNHHQGSHSDGAQVNGIQPEEISRLREEIEELRSHQVLLQSQLAEKDTVIENLRSSQVSGMSEQALATCSPRDAEQVAELKQELSALKSQLCSQSLEITRLQTENSELQQRAETLAKSVPVEGESELVTAAKTTDVEGRLSALLQETKELKNEIKALSEERTAIQKQLDSSNSTIAILQTEKDKLYLEVTDSKKEQDDLLVLLADQDQKILSLKSKLKDLGHPVEEEDESGDQEDDDDELDDGDRDQDI
As to B1, the percent of p115 depleted from cytosol was greater than 95%.
